Results published in PMC8621148, “Determination of the Protein-Protein Interactions within Acyl Carrier Protein (MmcB)-Dependent Modifications in the Biosynthesis of Mitomycin” (Molecules, 2021).

Experiments:
[1] = molecular target: MitB (intact, updated open reading frame), glycosyltransferase (Streptomyces lavendulae NRRL 2564) (UniProt Q9WW09); assay: SPR; Biacore 8K, 25 °C; MitB (5000 RU) or MitF (3000 RU) coupled to a CM5 chip in 10 mM NaAc pH 4.0; holo-MmcB flowed over (2.7-43.2 µM on MitB, 0.7-21.6 µM on MitF)
MitF, reductase = molecular target: T1, MitF, reductase (Streptomyces lavendulae NRRL 2564, UniProt Q9X5R6 1-257); assay: as above; details: both partners purified
T1 construct: MitF, reductase of the mitomycin C biosynthetic gene cluster, Streptomyces lavendulae NRRL 2564; source: E. coli BL21(DE3), pET30a (pJQK414), purified (Ni-NTA, FPLC); not shown: His6, N-terminal, kept
T1 sequence (looked up): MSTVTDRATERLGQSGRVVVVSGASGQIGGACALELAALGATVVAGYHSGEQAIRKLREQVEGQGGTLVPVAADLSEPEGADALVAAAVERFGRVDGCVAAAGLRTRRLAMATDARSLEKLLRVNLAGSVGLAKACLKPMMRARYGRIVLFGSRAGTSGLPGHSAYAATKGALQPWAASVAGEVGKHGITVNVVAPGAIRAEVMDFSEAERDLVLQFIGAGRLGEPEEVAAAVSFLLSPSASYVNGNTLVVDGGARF

B1: holo-MmcB (acyl carrier protein MmcB, tag-free) (natural protein, Streptomyces lavendulae NRRL 2564, UniProt Q9X5S0 1-93, looked up)
chain: METLTTDKIKDRLRKVLVDSLELSLDPSAVPDEGLVEKLGLDSINTIEFLIWVESEFGIEIADEDLSIKLIDSLDLLAGYVSERVNGVTAPAE
modifications: 4'-phosphopantetheine at Ser43 (holo-form)
notes: MmcB, acyl carrier protein of the mitomycin C biosynthetic gene cluster, Streptomyces lavendulae NRRL 2564; 93 amino acid residues; gene synthesised with codons optimised for E. coli; The methods name the holo form for both the pull-down and SPR; also called ACP; tag-free MmcB; not shown: His6, C-terminal, cleaved
Question: B1 was tested. Which Kd [1] did it give?
Answer: 578 nM

Question: What about the koff [1] of the same binder?
Answer: 0.113 s⁻¹

Question: And the kon [1]?
Answer: 195000 M⁻¹ s⁻¹

Question: What about the stoichiometry N [1] of the same binder?
Answer: 1

Question: What about the “stoichiometry N” value (MitF, reductase) of the same binder?
Answer: 1
